Reference: paper PMC6995580, “Thermal Inactivation of a Cold-Active Esterase PMGL3 Isolated from the Permafrost Metagenomic Library” (Biomolecules, 2019)

Experiments:
[1] = system: T1, CCCC(=O)Oc1ccc([N+](=O)[O-])cc1; assay: p-nitrophenol release, Lineweaver-Burk plot; assay type: biochemical, uncultured bacterium; details: 50 mM Tris-HCl pH 8.0, 100 mM NaCl, 30 °C, 0.1-1.25 mM substrate
T1 construct: dimer ~70 kDa; residues Cys49 and Cys207
Excerpt: p-nitrophenol release, Lineweaver-Burk plot on PMGL3

[2] = biological target: PMGL3 mutant C207F (not stated (permafrost metagenomic library)); assay: SEC; Superdex 75 10/300 GL, 0.4 mL/min, 100 mM Tris-HCl pH 8.0, 150 mM NaCl; sample after incubation for 1 h at 40 °C; column calibrated with 29-669 kDa standards
[3] = biological target: PMGL3 mutant C207F (not stated (permafrost metagenomic library)); assay: SEC; Superdex 75 10/300 GL, 0.4 mL/min, 100 mM Tris-HCl pH 8.0, 150 mM NaCl; fresh sample before heating; column calibrated with 29-669 kDa standards
[4] = biological target: cold-active esterase PMGL3 (wild type) (not stated (permafrost metagenomic library)); assay: SEC; Superdex 75 10/300 GL, 0.4 mL/min, 100 mM Tris-HCl pH 8.0, 150 mM NaCl; sample after incubation for 1 h at 40 °C; column calibrated with 29-669 kDa standards
[5] = biological target: cold-active esterase PMGL3 (wild type) (not stated (permafrost metagenomic library)); assay: SEC; Superdex 75 10/300 GL, 0.4 mL/min, 100 mM Tris-HCl pH 8.0, 150 mM NaCl; fresh sample before heating; column calibrated with 29-669 kDa standards
[6] = biological target: PMGL3 mutant C49V (not stated (permafrost metagenomic library)); assay: SEC; Superdex 75 10/300 GL, 0.4 mL/min, 100 mM Tris-HCl pH 8.0, 150 mM NaCl; sample after incubation for 1 h at 40 °C; column calibrated with 29-669 kDa standards
[7] = biological target: PMGL3 mutant C49V (not stated (permafrost metagenomic library)); assay: SEC; Superdex 75 10/300 GL, 0.4 mL/min, 100 mM Tris-HCl pH 8.0, 150 mM NaCl; fresh sample before heating; column calibrated with 29-669 kDa standards

| Substance | Km [1] | Vmax [1] | kcat [1] | kcat/Km [1] | other results |
| --- | --- | --- | --- | --- | --- |
| PMGL3 (unidentified; C207F) | 170 µM | 94600 µM/min/mg | 52.5 s⁻¹ | 309000 M⁻¹ s⁻¹ |  |
| PMGL3 mutant C207F (enzyme) |  |  |  |  | stoichiometry N [2]: 4; stoichiometry N [3]: 2 |
| cold-active esterase PMGL3 (wild type) (enzyme) |  |  |  |  | stoichiometry N [4]: 4; stoichiometry N [5]: 2 |
| PMGL3 (unidentified; C49V) | 1290 µM | 94700 µM/min/mg | 52.6 s⁻¹ | 40800 M⁻¹ s⁻¹ |  |
| PMGL3 mutant C49V (enzyme) |  |  |  |  | stoichiometry N [6]: 4; stoichiometry N [7]: 2 |
| PMGL3 (unidentified) | 980 µM | 165000 µM/min/mg | 91.5 s⁻¹ | 93400 M⁻¹ s⁻¹ |  |
